Experimental data from patent publication US20060148059A1, “Salt tolerant l-myo-inositol 1-phosphate synthase and the process of obtaining the same” (priority 2002, published 2006).

How the values were obtained:
[1] = substrate: NC(=O)c1ccc[n+]([C@@H]2O[C@H](COP(=O)([O-])OP(=O)(O)OC[C@H]3O[C@@H](n4cnc5c(N)ncnc54)[C@H](O)[C@@H]3O)[C@@H](O)[C@H]2O)c1; experiment: Km and Vmax of recombinant PINO1 (Biogel 0.5A purified, Line-Weaver Burk analysis); assay type: biochemical, Porteresia coarctata; conditions: other: recombinant PINO1, expressed in E. coli BL21 (DE3), pH 7.5
Protocol: (§1) The cDNA for RINO1 and PINO1 were subcloned into suitable cloning sites of the bacterial expression vector pET 20B (+). The resulting plasmids were introduced into the host strain E. coli BL-21 (DE3). The bacteria were grown in LB medium up to A600 of 0.5-absorbance unit and induced by 0.5 mM IPTG for 6 hours at 30° C. The bacteria were collected by centrifugation and lysed by sonication in a buffer containing 20 mM Tris-HCl, pH 7.5. 10 mM each of NH4Cl and ME, 2 mM PMSF. The lysed extracts were centrifuged and protein from both soluble and membrane fractions were analyzed by 10% SDS-PAGE according to Lammeli (Nature, 227, 660-605, 1970) followed by western blot for immunodetection. The separated proteins were blotted onto PVDF membrane and the blot was probed with rabbit anti L-myo-inositol 1-phosphate synthase antibody (1:500) raised against purified recombinant L-myo-inositol 1-phosphate synthase of Entamoeba (Lohia et al, Mol. Biochem. Parasitol. 98, 67-79, 1999) or purified cytosolic L myo-inositol 1-phosphate […] from Oryza leaves. Bound antibody was detected by the chemiluminiscence (kit from Amersham Life Sciences). […] The expressed RINO1 and PINO1 proteins were solubilized from the pellet fractions in solubilization buffer (8M urea, 0.5 M NaCl, 20 mM Tris-HCl pH 7.5, 10 mM ME, 2 mM PMSF) kept for 30 minutes at room temperature. […]

[2] = substrate: O=P(O)(O)OC[C@H]1OC(O)[C@H](O)[C@@H](O)[C@@H]1O; experiment: cells, lysate or membranes named; conditions: Line-Weaver Burk analysis, pH 7.5
[3] = substrate: NC(=O)c1ccc[n+]([C@@H]2O[C@H](COP(=O)([O-])OP(=O)(O)OC[C@H]3O[C@@H](n4cnc5c(N)ncnc54)[C@H](O)[C@@H]3O)[C@@H](O)[C@H]2O)c1; experiment: Km and Vmax of recombinant RINO1 (Biogel 0.5A purified, Line-Weaver Burk analysis); assay type: biochemical, Oryza sativa; conditions: other: recombinant RINO1, expressed in E. coli BL21 (DE3), pH 7.5
Protocol: as §1

Protein | Km [1] [µM] | Km ([2]; other: recombinant PINO1, expressed in E. coli BL21 (DE3)) [µM] | Km [3] [µM] | Km ([2]; other: recombinant RINO1, expressed in E. coli BL21 (DE3)) [µM]
Porteresia coarctata L-myo-inositol 1-phosphate synthase PINO1, recombinant (GenBank AF 412340) (Oryza coarctata) (protein, homotrimer) MFIESFRVESPHVRYGAAEIESEYRYDTTELVHESHDGASRWVVRPKSVQYHFRTSTTVPKLGVMLVGWGGNNGSTLTAGVIASREGISWATKDKVQQANYYGSLTQASTIRVGSYNGEEIYAPFKSLLPMVNPDDLVFGGWDISNMNLADAMTRAKVLDIDLQKQLRPYMESWCLSLASMIPTSSPLTRDPARTMSSREPRRSRWGRSSKDIREFKENNKMDKAVVLWTANTERYNNCLCLGLMTNGKPSASVDRNQAEISPSTLYCHCLASLEGVRSITGALKKKSWPGIDDLAIKKKLPDPGGLIQKRGKPKKKTGLVDFLMGAGIKPTSIVSYNHLGNNDGTNLSAPQTFRSKEISKSSVVDDMVSSNAILYEPGEHPDHVVVIKYVPYVGDSKRAMDEYTSEIFMGGKNTIVLHNTCEDSLLAAPIILDLVLLAELSTRIQLKGEGEEKFHSFHPVATILSYLTKAPLVPPGTPVVNALAKQRAMLENIMRACVGLAPENNMILEYK | 166 | 2500 |  | 
Oryza sativa L-myo-inositol 1-phosphate synthase RINO1, recombinant (GenBank AB012107) (Oryza sativa Japonica Group) (protein, homotrimer) MFIESFRVESPHVRYGAAEIESDYQYDTTELVHESHDGASRWIVRPKSVRYNFRTTTTVPKLGVMLVGWGGNNGSTLTAGVIANREGISWATKDKVQQANYYGSLTQASTIRVGSYNGEEIYAPFKSLLPMVNPDDLVFGGWDISNMNLADAMTRAKVLDIDLQKQLRPYMESMVPLPGIYDPDFIAANQGSRANNVIKGTKKEQMEQIIKDIREFKEKSKVDKVVVLWTANTERYSNVCVGLNDTMENLLASVDKNEAEISPSTLYAIACVMEGIPFINGSPQNTFVPGLIDLAIKNNCLIGGDDFKSGQTKMKSVLVDFLVGAGIKPTSIVSYNHLGNNDGMNLSAPQTFRSKEISKSNVVDDMVSSNAILYELGEHPDHVVVIKYVPYVGDSKRAMDEYTSEIFMGGKSTIVLHNTCEDSLLAAPIILDLVLLAELSTRIQLKAEGEEKFHSFHPVATILSYLTKAPLVPPGTPVVNALAKQRAMLENIMRACVGLAPENNMILEYK |  |  | 188 | 3000
